{"source": "the RNAGym collection of RNA variant scans (doi:10.1093/molbev/msab373)", "parents": {"B1": {"name": "Azoarcus group I ribozyme (parent)", "chain": "GUGCCUUGCGCCGGGAAACCACGCAAGGGAUGGUGUCAAAUUCGGCGAAACCUAAGCGCCCGCCCGGGCGUAUGGCAACGCCGAGCCAAGCUUCGGCGCCUGCGCCGAUGAAGGUGUAGAGACUAGACGGCACCCACCUAAGGCAAACGCUAUGGUGAAGGCAUAGUCCAGGGAGUGGCGAAAGUCACACAAACCGG"}}}
{"variants_of": "B1", "assay": "reverse-splicing fitness (ratio to wild type); higher = more active; in vitro selection; Mg2+ level not given", "procedure,_shortened": "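An in vitro group I ribozyme library with randomized positions was T7-transcribed and gel-purified. In triplicate, 10 pmol RNA in EPPS pH 7.5 was reacted with 50 pmoles of a 30-nt RNA substrate for 1 h at 37 °C across several added MgCl2 levels (1–48 mM), then stopped with EDTA. Products were reverse transcribed from a substrate-complementary primer, PCR-amplified and sequenced (HiSeq 4000). Fitness is a variant's read proportion after selection over that before, normalised to wild type.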"}
{"variant": "C82A A111C A120C A145U C150G C169U U176C", "reverse-splicing fitness": 0.0101}
{"variant": "C82A A111C A120C A145U C150G C169U U176G", "reverse-splicing fitness": 0.00684}
{"variant": "C82A A111C A120C A145U C150G C169U U176A", "reverse-splicing fitness": 0.00763}
{"variant": "C82A A111C A120G A145G C150G C169U", "reverse-splicing fitness": 0.00877}
{"variant": "C82A A111C A120G A145G C150G C169A", "reverse-splicing fitness": 0.00875}
{"variant": "C82A A111C A120G A145G C150G C169G", "reverse-splicing fitness": 0.00706}
{"variant": "C82A A111C A120C A145C C150U C169U U176G", "reverse-splicing fitness": 0.00738}
{"variant": "C82A A111C A120C A145C C150U C169U U176A", "reverse-splicing fitness": 0.0135}
{"variant": "C82A A111C A120C A145C C150U C169U U176C", "reverse-splicing fitness": 0.0105}
{"variant": "C82A A111C A120C A145G C169A", "reverse-splicing fitness": 0.00886}
{"variant": "C82A A111C A120C A145G C169U", "reverse-splicing fitness": 0.0141}
{"variant": "C82A A111C A120C A145G C169G", "reverse-splicing fitness": 0.00846}
{"variant": "C82A A111C A120C C150A C169A U176C", "reverse-splicing fitness": 0.0181}
{"variant": "C82A A111C A120C C150A C169A U176G", "reverse-splicing fitness": 0.00827}
{"variant": "C82A A111C A120C C150A C169A U176A", "reverse-splicing fitness": 0.0196}
{"variant": "C82A A111C A120G A145C U176A", "reverse-splicing fitness": 0.0123}
{"variant": "C82A A111C A120G A145C U176C", "reverse-splicing fitness": 0.0134}
{"variant": "C82A A111C A120G A145C U176G", "reverse-splicing fitness": 0.00486}
{"variant": "C82A A111C A120G A145C C150U C169A U176G", "reverse-splicing fitness": 0.00632}
{"variant": "C82A A111C A120G A145C C150U C169A U176C", "reverse-splicing fitness": 0.00619}
{"variant": "C82A A111C A120G A145C C150U C169A U176A", "reverse-splicing fitness": 0.0112}
{"variant": "C82A A111C A120C A145G C150U C169A U176C", "reverse-splicing fitness": 0.0162}
{"variant": "C82A A111C A120C A145G C150U C169A U176G", "reverse-splicing fitness": 0.00826}
{"variant": "C82A A111C A120C A145G C150U C169A U176A", "reverse-splicing fitness": 0.0159}
{"variant": "C82A A111C A120C C150A C169G U176G", "reverse-splicing fitness": 0.00878}
{"variant": "C82A A111C A120C C150A C169G U176A", "reverse-splicing fitness": 0.0168}
{"variant": "C82A A111C A120C C150A C169G U176C", "reverse-splicing fitness": 0.0202}
{"variant": "C82A A111C A120C A145U C150G C169A U176C", "reverse-splicing fitness": 0.0125}
{"variant": "C82A A111C A120C A145U C150G C169A U176A", "reverse-splicing fitness": 0.00956}
{"variant": "C82A A111C A120C A145U C150G C169A U176G", "reverse-splicing fitness": 0.00744}
{"variant": "C82A A111C A120C C150A U176G", "reverse-splicing fitness": 0.00759}
{"variant": "C82A A111C A120C C150A U176C", "reverse-splicing fitness": 0.0178}
{"variant": "C82A A111C A120C C150A U176A", "reverse-splicing fitness": 0.0118}
{"variant": "C82A A111C A120G A145G C150A C169A U176C", "reverse-splicing fitness": 0.0231}
{"variant": "C82A A111C A120G A145G C150A C169A U176G", "reverse-splicing fitness": 0.00667}
{"variant": "C82A A111C A120G A145G C150A C169A U176A", "reverse-splicing fitness": 0.0181}
{"variant": "C82A A111C A120G A145G C150U C169G U176C", "reverse-splicing fitness": 0.0182}
{"variant": "C82A A111C A120G A145G C150U C169G U176A", "reverse-splicing fitness": 0.0123}
{"variant": "C82A A111C A120G A145C C169U U176A", "reverse-splicing fitness": 0.0138}
{"variant": "C82A A111C A120G A145C C169U U176C", "reverse-splicing fitness": 0.00921}
{"variant": "C82A A111C A120G A145C C169U U176G", "reverse-splicing fitness": 0.00467}
{"variant": "C82A A111C A120G A145C C150A C169A U176C", "reverse-splicing fitness": 0.00778}
